In patent US20240190989A1 (BEIGENE SWITZERLAND, published 2024):
Changes are numbered by the printed parent chain. Each block holds one binder with its values, some of them ahead of it.

Assays:
[1] = target: T1, full-length human CEA on cells (MKN45, LOVO, L929/huCEA, CT26/CEA, CT26-OS8-CEA) (human, UniProt P06731 35-685); assay: flow cytometry on CT26/CEA cells [panel A]
T1 construct: also called CEACAM5; native CEA
T1 sequence: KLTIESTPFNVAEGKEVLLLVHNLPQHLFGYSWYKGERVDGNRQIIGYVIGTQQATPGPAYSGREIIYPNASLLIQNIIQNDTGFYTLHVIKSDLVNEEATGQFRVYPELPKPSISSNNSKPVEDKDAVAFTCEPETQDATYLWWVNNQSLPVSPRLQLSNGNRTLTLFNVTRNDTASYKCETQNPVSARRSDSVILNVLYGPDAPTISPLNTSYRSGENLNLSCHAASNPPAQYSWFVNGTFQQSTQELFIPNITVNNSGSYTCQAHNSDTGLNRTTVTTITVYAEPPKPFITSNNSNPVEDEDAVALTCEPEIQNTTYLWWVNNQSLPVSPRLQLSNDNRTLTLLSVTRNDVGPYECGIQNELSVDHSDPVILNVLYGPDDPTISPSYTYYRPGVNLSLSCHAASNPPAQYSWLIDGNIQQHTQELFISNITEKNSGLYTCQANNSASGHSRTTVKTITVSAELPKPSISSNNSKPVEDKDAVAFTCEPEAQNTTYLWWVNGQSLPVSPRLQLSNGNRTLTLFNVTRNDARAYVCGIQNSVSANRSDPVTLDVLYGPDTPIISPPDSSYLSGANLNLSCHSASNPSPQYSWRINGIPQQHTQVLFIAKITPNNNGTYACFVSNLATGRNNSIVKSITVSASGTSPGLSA

[2] = target: T2, full-length human CD137 on cells (Hut78/huCD137, HEK293 transfectants, JK-NFKB-CD137) (human, UniProt Q07011 24-255); assay: flow cytometry on Hut78/huCD137 cells [panel A]
T2 construct: also called native CD137; TNFRSF9
T2 sequence (Q07011 24-255 limits assumed): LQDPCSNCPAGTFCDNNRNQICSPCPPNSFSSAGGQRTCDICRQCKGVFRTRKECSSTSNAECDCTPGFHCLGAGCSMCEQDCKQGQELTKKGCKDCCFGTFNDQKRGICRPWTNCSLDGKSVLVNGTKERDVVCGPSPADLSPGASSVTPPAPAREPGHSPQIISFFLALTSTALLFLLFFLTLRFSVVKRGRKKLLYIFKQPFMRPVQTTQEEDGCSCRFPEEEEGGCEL

[3] = target: T3, human CD137 ECD-mIgG2a (human); assay: SPR, Fc-fusion VH captured
T3 construct: ECD 24-183 of huCD137 fused to mouse IgG2a Fc; also called huCD137-mIgG2a; huCD137
T3 sequence (chain, as listed by the source limits assumed): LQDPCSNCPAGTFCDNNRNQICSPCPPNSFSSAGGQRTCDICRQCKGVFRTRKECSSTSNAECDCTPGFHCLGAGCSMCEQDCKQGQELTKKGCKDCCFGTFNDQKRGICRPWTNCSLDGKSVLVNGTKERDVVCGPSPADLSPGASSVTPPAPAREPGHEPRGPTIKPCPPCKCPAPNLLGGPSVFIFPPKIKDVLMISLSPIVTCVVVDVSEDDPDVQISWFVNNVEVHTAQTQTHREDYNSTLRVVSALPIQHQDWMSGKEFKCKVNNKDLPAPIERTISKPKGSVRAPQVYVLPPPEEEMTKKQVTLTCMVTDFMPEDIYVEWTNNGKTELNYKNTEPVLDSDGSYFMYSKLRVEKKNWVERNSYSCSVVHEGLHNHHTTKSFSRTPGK

[4] = target: T2, full-length human CD137 on cells …; assay: flow cytometry on Hut78/huCD137 cells
[5] = target: T3, human CD137 ECD-mIgG2a; assay: competition ELISA on coated human CD137 ECD-mIgG2a: serially diluted human CD137 ligand ECD-mIgG2a against BGA-5623 (IgG4), bound antibody detected with anti-human IgG-HRP [panel A]
[6] = target: T2, full-length human CD137 on cells …; assay: flow cytometry competition on Hut78/huCD137 cells: serially diluted human CD137 ligand-mIgG2a against BGA-4712 VH-Fc, bound VH-Fc detected with anti-hu IgG Fc [panel B]
[7] = target: T2, full-length human CD137 on cells …; assay: flow cytometry on Hut78/huCD137 cells [panel B]

B2: BGA-5623-mutFc (Fc fusion VH Ab) (Fc fusion)
chain: EVQLLESGGGLVQPGGSLRLSCAASGFTVSAEDVGWVRQAPGKGLEWVSAILDKGGSTYYAESVKGRFTISRDNAKNTLYLQMSSLRAEDTAVYYCARIVYHAGGGVTFDTRGQGTQVTVSSGGGGSDKTHTCPPCPAPPAAGPSVFLFPPKPKDTLMISRTPEVTCVVVDVSHEDPEVKFNWYVDGVEVHNAKTKPREEQYNSTYRVVSVLTVLHQDWLNGKEYKCKVSNKALAAPIEKTISKAKGQPREPQVYTLPPSREEMTKNQVSLTCLVKGFYPSDIAVEWESNGQPENNYKTTPPVLDSDGSFFLYSKLTVDKSRWQQGNVFSCSVMHEALHNHYTQKSLSLSPGK
Kd [3]: 50.3 nM | EC50 (read off the curve) [4]: ~0.5 µg/mL

B4: anti-CEA Ab (IgG1) (antibody, V domains shown)
VH: QVQLVQSGAEVKKPGASVKVSCKASGYIFTSYYLHWVRQAPGQGLEWIGYINPQTGKTSYAQKFQGRVTMTRDTSTSTVYMELSSLRSEDTAVYYCAREYGNYNYPLDYWGQGTLVTVSS
VL: DIQMTQSPSSLSASVGDRVTITCRASENQYGYLAWYQQKPGKVPKLLIYNYKNLVEGVPSRFSGSGSGTDFTLTISSLQPEDVATYYCQHHLGTPYTFGQGTKVEIKR
binding result [7]: no binding (tested: last point just above 10^2 ug/ml)

Further lines, with some results ahead:

EC50 (read off the curve) [2]: ~3 µg/mL
B1: BGA-4712 (anti-huCD137 VH domain antibody as VH-Fc with inert human IgG1 Fc) (Fc fusion)
chain: B2 chain with T28M, V29L, K54F, E62D, A75S, S84N, I99V, T111Y, R112W, Q117L
binding result [1]: no binding (tested: last point just above 10^2 ug/ml)

IC50 (read off the curve) [5]: ~1 µg/mL | IC50 (read off the curve) [6]: ~0.4 µg/mL
B3: human CD137 ligand-mIgG2a (Fc fusion)
chain: EPRGPTIKPCPPCKCPAPNLLGGPSVFIFPPKIKDVLMISLSPIVTCVVVDVSEDDPDVQISWFVNNVEVHTAQTQTHREDYNSTLRVVSALPIQHQDWMSGKEFKCKVNNKDLPAPIERTISKPKGSVRAPQVYVLPPPEEEMTKKQVTLTCMVTDFMPEDIYVEWTNNGKTELNYKNTEPVLDSDGSYFMYSKLRVEKKNWVERNSYSCSVVHEGLHNHHTTKSFSRTPGKGGGGSREGPELSPDDPAGLLDLRQGMFAQLVAQNVLLIDGPLSWYSDPGLAGVSLTGGLSYKEDTKELVVAKAGVYYVFFQLELRRVVAGEGSGSVSLALHLQPLRSAAGAAALALTVDLPPASSEARNSAFGFQGRLLHLSAGQRLGVHLHTEARARHAWQLTQGATVLGLFRVTPEIPAGLPSPRSE
notes: also called human CD137 ligand ECD-mIgG2a; huCD137 ligand
